Reference: patent US20210317220A1 (Janssen / Centocor, published 2021)

Columns and labels:
[1] = target: T1, rhesus monkey soluble CD154 (rhesus monkey, UniProt P63304 113-261, limits assumed); test: free and total sCD154 in platelet poor plasma of rhesus monkeys dosed IV or SC (3-month study)
T1 construct: Endogenous plasma protein measured in dosed animals; also called sCD154; free sCD154
T1 sequence (looked up): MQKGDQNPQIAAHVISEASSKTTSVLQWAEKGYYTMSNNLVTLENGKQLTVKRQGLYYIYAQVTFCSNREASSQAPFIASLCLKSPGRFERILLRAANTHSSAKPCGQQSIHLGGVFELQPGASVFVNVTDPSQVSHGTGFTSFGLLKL
Method: Rhesus monkeys were administered the anti-CD154 antibody C4LB231 intravenously (IV) or subcutaneously (SC) once weekly for 13 weeks. The control vehicle was 0.9% sterile saline (NaCl). Animals were dosed by IV or SC injection as described above for the 8-week study on days 1, 8, 15, 22, 29, 36, 43, 50, 57, 64, 71, 78, and 85 for a total of 13 doses. On days 29, 57, and 155 (recovery study animals only) animals received an intramuscular injection of a 1 mg dose of KLH antigen to the left thigh for a KLH-antigen challenge study. Blood samples were collected from the animals and evaluated as described below.
Free and total soluble CD154 (sCD154) were assessed in platelet poor plasma samples. […] The extent of reduction was greater at the higher dose levels. A dose-dependent decrease in free sCD154 coupled with dose-dependent increase in total sCD154 indicated good target engagement in plasma.

soluble human CD154 = target: T2, soluble human CD154 (human, UniProt P29965 113-261); test: ELISA of free and total sCD154 in platelet poor plasma of dosed human participants
T2 construct: also called sCD154; shCD154
T2 sequence: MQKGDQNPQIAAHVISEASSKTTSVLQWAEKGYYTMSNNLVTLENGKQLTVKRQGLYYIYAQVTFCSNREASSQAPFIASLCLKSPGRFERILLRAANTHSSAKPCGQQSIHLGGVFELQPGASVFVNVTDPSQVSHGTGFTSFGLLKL
Method: Mean free and total soluble CD154 (sCD154) concentrations were determined by ELISA in platelet poor plasma samples obtained from the participants administered C4LB231 according to the study described in Example 2. Free sCD154 concentration remained undetectable until 14 days after dosing indicating suppression of the target of […].

binding result [1]: binds
binding result (soluble human CD154): binds
B1: anti-CD154 antibody C4LB231 (antibody, human IgG1, kappa, V domains shown)
VH: QVQLVQSGAEVKKPGSSVKVSCKASGGTFSSYGISWVRQAPGQGLEWMGWISPIFGNTNYAQKFQGRVTITADESTSTAYMELSSLRSEDTAVYYCARSRYYGDLDYWGQGTLVTVSS
VL: DIQMTQSPSSLSASVGDRVTITCRASQSISSYLNWYQQKPGKAPKLLIYYANSLQSGVPSRFSGSGSGTDFTLTISSLQPEDFATYYCQQSDSIPWTFGQGTKVEIKR
notes: Human IgG1σ mAb (Fc-silencing mutations L234A, L235A, G237A, P238S, H268A, A330S, P331S); also called C4BL231; C4BL231 (Fc silent)
